The target in assay [1] is T1, MDM2 (In-house, 41 kD) (UniProt Q00987 1-138, limits assumed).
T1 construct: Construct used in the FP assays is described only as in-house, 41 kD; also called HDM2
As to the kind of experiment: competitive fluorescence polarization vs FAM-labeled linear peptide; grade of Ki (MDM2); scale in paragraph 664: ++++ = <=10 nM. On the technique in general: Fluorescence polarisation rises when a labelled molecule tumbles more slowly, as on binding a larger partner.

The target of assay [2] is T2, MDMX (In-house, 40 kD) (UniProt O15151 1-134, limits assumed).
T2 construct: Construct used in the FP assays is described only as in-house, 40 kD; also called MDM4
T2 sequence (looked up): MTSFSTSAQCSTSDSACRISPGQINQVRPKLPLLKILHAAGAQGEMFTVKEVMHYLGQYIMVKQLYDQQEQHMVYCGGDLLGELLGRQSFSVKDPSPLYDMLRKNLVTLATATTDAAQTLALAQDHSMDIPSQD
As to the kind of experiment: competitive fluorescence polarization vs FAM-labeled linear peptide; grade of Ki (MDMX); scale in paragraph 664: +++ = >10 and <=100 nM. Here is the method: (§1) The assay is performed according to the following general protocol: 1. Dilute MDMX (In-house, 40 kD) into FP buffer (High salt buffer-200 mM Nacl, 5 mM CHAPS, pH 7.5.) to make 300 nM (2×) working stock solution. 2. Add 20 µl of 300 nM (2×) of protein stock solution into each well of 96-well black HE microplate (Molecular Devices) 3. […] Then, dilute from 100 µM to 10 µM with water (dilution 1:10) and then dilute with FP buffer from 10 µM to 40 nM (dilution 1:250). This is the working solution which will be a 10 nM concentration in well (dilution 1:4). […] 4. Make unlabeled peptide dose plate with FP buffer starting with 5 µM (final) of peptide and making 5 fold serial dilutions for 6 points using following dilution scheme. 5. Dilute 10 mM (in 100% DMSO) with DMSO to 5 mM (dilution 1:2). Then, dilute from 5 mM to 500 µM with H_2O (dilution 1:10) and then dilute with FP buffer from 500 µM to 20 µM (dilution 1:25). Making 5 fold serial dilutions from 20 µM (4×) for 6 points. 6. Transfer 10 µl of serial diluted unlabeled peptides to each well which is filled with 20 µl of 300 nM of protein. 7.

Assay [3] addresses T1, MDM2 (In-house, 41 kD). As to the kind of experiment: competitive fluorescence polarization vs FAM-labeled linear peptide; grade of IC50 (MDM2); scale in paragraph 664: +++ = >10 and <=100 nM.
Assay [4] has as its target T2, MDMX (In-house, 40 kD). As to the kind of experiment: competitive fluorescence polarization vs FAM-labeled linear peptide; grade of IC50 (MDMX); scale in paragraph 664: +++ = >10 and <=100 nM. Here is the method: as §1
In assay [5] the target is T2, MDMX (In-house, 40 kD). As to the kind of experiment: competitive fluorescence polarization vs FAM-labeled linear peptide; grade of Ki (MDMX); scale in paragraph 664: ++++ = <=10 nM. Here is the method:
as §1

In assay [6] the target is T1, MDM2 (In-house, 41 kD). Briefly: competitive fluorescence polarization vs FAM-labeled linear peptide; grade of Ki (MDM2); scale in paragraph 664: ++ = >100 and <=1000 nM.
For assay [7], the target named is T1, MDM2 (In-house, 41 kD). Briefly: competitive fluorescence polarization vs FAM-labeled linear peptide; grade of IC50 (MDM2); scale in paragraph 664: ++++ = <=10 nM.
Assay [8] concerns the target T2, MDMX (In-house, 40 kD). As to the kind of experiment: competitive fluorescence polarization vs FAM-labeled linear peptide; grade of IC50 (MDMX); scale in paragraph 664: ++++ = <=10 nM. Here is the method:
as §1

Assay [9] concerns the target T1, MDM2 (In-house, 41 kD). Briefly: competitive fluorescence polarization, Ki (MDM2).
Assay [10] has as its target T2, MDMX (In-house, 40 kD). Briefly: competitive fluorescence polarization, Ki (MDMX). Here is the method: as §1

Bridge positions count the residues as written; N and C are the ends. Square brackets hold non-standard residues; d marks the D form. $4rn6 = Alpha-Me R-azide 1,4 triazole (6 carbon), forms a triazole cross-link with a second residue in the same molecule; $4a5 = Alpha-Me alkyne 1,4 triazole (5 carbon), forms a triazole cross-link with a second residue in the same molecule; $5rn6 = Alpha-Me R-azide 1,5 triazole (6 carbon); $5a5 = Alpha-Me alkyne 1,5 triazole (5 carbon); Cba = N[C@@H](CC1CCC1)C(=O)O

The Ki is the dissociation constant of the complex between target and ligand, obtained from inhibition or displacement. Low values mean higher affinity, high ones lower affinity. The IC50 is the concentration at which inhibition is half-maximal. A low value points to greater potency in that assay.

T1 sequence (Q00987 1-138 limits assumed): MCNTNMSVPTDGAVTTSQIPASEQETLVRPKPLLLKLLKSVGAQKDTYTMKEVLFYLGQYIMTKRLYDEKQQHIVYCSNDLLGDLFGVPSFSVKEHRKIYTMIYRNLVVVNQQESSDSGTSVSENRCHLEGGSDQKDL

B1: SP-917 (peptide)
peptide: LTFCAYWAQLCAAAAAA
modifications: N-terminal acetyl (Ac); position 4 = %cs7 (alpha-methyl-D-cysteine) connected by an i to i+7 seven-methylene bis-thioether crosslinker to position 11 = %c7 (alpha-methyl-L-cysteine); position 17 = D-alanine (a); C-terminal amide (NH2)
notes: Thioether-crosslinked macrocycle of Formula II; also called Ac-LTF%cs7AYWAQL%c7AAAAAa-NH2
Regarding B1, the Ki in the assay with MDM2 (In-house, 41 kD) [1] was at most 10 nM; with MDMX (In-house, 40 kD) [2] it was 10 to 100 nM. Further, the IC50 is 10 to 100 nM with MDM2 (In-house, 41 kD) [3] and 10 to 100 nM in the assay with MDMX (In-house, 40 kD) [4].

B2: SP-916 (peptide)
peptide: LTFCAYWAQLCAAXA
modifications: N-terminal acetyl (Ac); position 4 = %cs7 (alpha-methyl-D-cysteine) connected by an i to i+7 seven-methylene bis-thioether crosslinker to position 11 = %c7 (alpha-methyl-L-cysteine); position 14 = Nle (norleucine); C-terminal amide (NH2)
notes: Thioether-crosslinked macrocycle of Formula II; also called Ac-LTF%cs7AYWAQL%c7AANleA-NH2
On to B2, for which the Ki in the assay with MDM2 (In-house, 41 kD) [1] was at most 10 nM; with MDMX (In-house, 40 kD) [5], at most 10 nM. The IC50 with MDM2 (In-house, 41 kD) [3] is 10 to 100 nM; with MDMX (In-house, 40 kD) [4] it was 10 to 100 nM.

B3: SP-450 (peptide)
peptide: Ac-LTF[$4rn6]AYWAQL[$4a5]AAAAA[dA]-NH2
modifications: triazole 4-11
notes: Triazole-crosslinked macrocycle of Formula I; also called Ac-LTF$4rn6AYWAQL$4a5AAAAAa-NH2
For B3, the Ki with MDM2 (In-house, 41 kD) [6] was in the range of 100 to 1000 nM.

B4: SP-449 (peptide)
peptide: LTFXAYWAQLXAAXA
modifications: N-terminal acetyl (Ac); position 4 = $4rn6 (alpha-Me R-azide 1,4 triazole, 6 carbon) crosslinked to position 11 = $4a5 (alpha-Me alkyne 1,4 triazole, 5 carbon); position 14 = Nle (norleucine); C-terminal amide (NH2)
notes: Triazole-crosslinked macrocycle of Formula I; also called Ac-LTF$4rn6AYWAQL$4a5AANleA-NH2
Take B4: the Ki in the assay with MDM2 (In-house, 41 kD) [1] was at most 10 nM; with MDMX (In-house, 40 kD) [5], at most 10 nM. In addition, the half-inhibitory concentration (IC50) with MDM2 (In-house, 41 kD) [7] is at most 10 nM; with MDMX (In-house, 40 kD) [8], at most 10 nM.

B5: SP-459 (peptide)
peptide: Ac-LTA[$5rn6]EYWAQ[Cba][$5a5]SAA-NH2
modifications: triazole 4-11
notes: also called Ac-LTA$5rn6EYWAQCba$5a5SAA-NH2
As to B5, the Ki with MDM2 (In-house, 41 kD) [9] was over 1000 nM; with MDMX (In-house, 40 kD) [10] it was over 1000 nM.

B6: SP-460 (peptide)
peptide: Ac-LTA[$4rn6]EYWAQ[Cba][$4a5]SAA-NH2
modifications: triazole 4-11
notes: also called Ac-LTA$4rn6EYWAQCba$4a5SAA-NH2
B6: the inhibition constant Ki was over 1000 nM with MDM2 (In-house, 41 kD) [9] and over 1000 nM with MDMX (In-house, 40 kD) [10].

For the origin of these results see patent publication US8987414 (AILERON THERAPEUTICS, dated 2015).
